Measured values: US11155586B2, “Cystine knot scaffold platform” (Genentech, Inc., priority 2015, dated 2021)
Positions of bridges follow the written chain, without caps; N, C: chain ends. Residues, ends and D or L forms follow the SMILES beside them.

Molecular target: T1, hVEGF(8-109) (Homo sapiens, UniProt P15692)
T1 construct: hVEGF(8-109) or BSA were coated on 384-well MAXISORP™ immunoplates
T1 sequence (P15692 214-315): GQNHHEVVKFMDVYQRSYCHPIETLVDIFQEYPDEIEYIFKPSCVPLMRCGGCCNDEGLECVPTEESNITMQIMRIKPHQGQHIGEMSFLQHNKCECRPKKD
Assay: Spot phage ELISA
Assay type: binding
Method: After four rounds of binding selection, individual phage clones were picked and inoculated into 450 μl 2YT media containing 50 µg/ml Carbenecillin and M13-KO7 helper phage in 96-well blocks, which were grown at 37° C. overnight. The supernatant was analyzed with spot phage ELISA as follows: hVEGF(8-109) or BSA were coated on 384-well MAXISORP™ immunoplates and phage supernatant diluted (1:3) with PBT buffer was added to the wells. The plates were washed and bound phage was detected with anti-M13-HRP followed by TMB substrate. In these assays, phage binding to BSA alone was tested in parallel to assess background binding. Clones whose binding signals for hVEGF-A (8-109) were more than 3 times higher than to BSA (background) were considered positive. Positive clones were subjected to DNA sequence analysis.

[1] = loop 2 variants based on VEGF_CKP9.63 framework, Table 27
[2] = VEGF_CKP9 Loop1/Loop5 affinity-matured variants, Table 24
[3] = spot phage ELISA signal, EETI-II-based binders against hVEGF-A, Table 19

Q: For “GCDVMQPYWGCGNSFECLAGCVCHWYNSCG [VEGF_CKP9.63.47]”, which “S/N (signal to noise ratio as compared to BSA control)” value (Table 27) is on record?
A: 20.7

Q: And the ELISA [1]?
A: 1.7

Q: For `CC(C)C[C@@H]1NC(=O)[C@@H]2CSSC[C@H](NC(=O)CNC(=O)[C@H](Cc3c[nH]c4ccccc34)NC(=O)[C@H](CC(C)C)NC(=O)[C@@H]3CCCN3C(=O)[C@H](CCC(=O)O)NC(=O)[C@H](Cc3ccccc3)NC(=O)[C@H](CC(C)C)NC(=O)[C@H](CCCCN)NC(=O)[C@@H](NC(=O)CN)CSSC[C@@H](C(=O)N[C@H](C(=O)N[C@H]3CSSC[C@@H](C(=O)NCC(=O)O)NC(=O)[C@H](CO)NC(=O)[C@H](CCC(=O)O)NC(=O)[C@H](Cc4ccc(O)cc4)NC(=O)[C@H](Cc4c[nH]c5ccccc45)NC(=O)[C@H](CCCNC(=N)N)NC3=O)C(C)C)NC(=O)CNC(=O)[C@H](C)NC1=O)C(=O)N[C@@H](CCCCN)C(=O)N[C@@H](CCC(N)=O)C(=O)N[C@@H](CC(=O)O)C(=O)N[C@@H](CO)C(=O)N[C@@H](CC(=O)O)C(=O)N2` [VEGF_CKP9.96] (H-GCKLFEPLWGCKQDSDCLAGCVCRWYESCG-OH; disulfide 2-21, 11-17, 23-29; N-terminus and C-terminus assumed), which “S/N (signal to noise ratio as compared to BSA control)” value (Table 24) is on record?
A: 18.4

Q: What about the ELISA [2] of the same compound?
A: 1.2

Q: Which “S/N (signal to noise ratio as compared to BSA control)” value (Table 27) does the source give for “GCDVMQPYWGCGMDIECLAGCVCHWYNSCG [VEGF_CKP9.63.16]” here?
A: 10.3

Q: What about the ELISA [1] of the same compound?
A: 2.2

Q: With `CC(C)C[C@@H]1NC(=O)[C@@H]2CSSC[C@H](NC(=O)CNC(=O)[C@H](Cc3c[nH]c4ccccc34)NC(=O)[C@H](Cc3ccccc3)NC(=O)[C@@H]3CCCN3C(=O)[C@H](CCC(N)=O)NC(=O)[C@H]([C@@H](C)O)NC(=O)[C@H](CCCNC(=N)N)NC(=O)[C@H](CCC(N)=O)NC(=O)[C@@H](NC(=O)CN)CSSC[C@@H](C(=O)N[C@H](C(=O)N[C@H]3CSSC[C@@H](C(=O)NCC(=O)O)NC(=O)[C@H](CO)NC(=O)[C@H](CCC(N)=O)NC(=O)[C@H](Cc4ccc(O)cc4)NC(=O)[C@H](Cc4c[nH]c5ccccc45)NC(=O)[C@H](CCCNC(=N)N)NC3=O)C(C)C)NC(=O)CNC(=O)[C@H](C)NC1=O)C(=O)N[C@@H](CCCCN)C(=O)N[C@@H](CCC(N)=O)C(=O)N[C@@H](CC(=O)O)C(=O)N[C@@H](CO)C(=O)N[C@@H](CC(=O)O)C(=O)N2` [VEGF_CKP9.22] (H-GCQRTQPFWGCKQDSDCLAGCVCRWYQSCG-OH; disulfide 2-21, 11-17, 23-29 (inferred); N-terminus and C-terminus assumed) as the compound, how does the “S/N (signal to noise ratio as compared to BSA control)” value (Table 24) read?
A: 17.2

Q: And the ELISA [2]?
A: 1.2

Q: For “GCDVMQPYWGCGQDYNCLAGCVCHWYNSCG [VEGF_CKP9.63.56]”, which “S/N (signal to noise ratio as compared to BSA control)” value (Table 27) is on record?
A: 8.4

Q: What about the ELISA [1] of the same compound?
A: 1.8

Q: “GCDVMQPYWGCGDDLECLAGCVCHWYNSCG [VEGF_CKP9.63.14]” was tested. Which “S/N (signal to noise ratio as compared to BSA control)” value (Table 27) did it give?
A: 21.3

Q: And the ELISA [1]?
A: 1.5

Q: What does the source list for “GCDVMQPYWGCDLNYECLAGCVCHWYNSCG [VEGF_CKP9.63.87]”?
A: S/N (signal to noise ratio as compared to BSA control) (Table 27): 8.6; ELISA [1]: 0.9

Q: With `CC[C@H](C)[C@@H]1NC(=O)[C@H](CC(=O)O)NC(=O)[C@H](Cc2c[nH]cn2)NC(=O)[C@@H]2CCCN2C(=O)[C@H](CCC(=O)O)NC(=O)[C@H](Cc2c[nH]c3ccccc23)NC(=O)[C@@H]2CCCN2C(=O)[C@H]([C@@H](C)O)NC(=O)[C@H](CCCNC(=N)N)NC(=O)[C@@H](NC(=O)CN)CSSC[C@@H]2NC(=O)CNC(=O)[C@H](C)NC(=O)[C@H](CC(C)C)NC(=O)[C@@H]3CSSC[C@@H](C(=O)NCC(=O)O)NC(=O)[C@H](Cc4ccccc4)NC(=O)CNC(=O)[C@H](CC(N)=O)NC(=O)[C@@H]4CCCN4C(=O)CNC(=O)[C@H](CSSC[C@H](NC(=O)[C@H]([C@@H](C)O)NC1=O)C(=O)N[C@@H](CCCCN)C(=O)N[C@@H](CCC(N)=O)C(=O)N[C@@H](CC(=O)O)C(=O)N[C@@H](CO)C(=O)N[C@@H](CC(=O)O)C(=O)N3)NC(=O)[C@H](C(C)C)NC2=O` [VEGF_CKP11] (H-GCRTPWEPHDITCKQDSDCLAGCVCGPNGFCG-OH; disulfide 2-23, 13-25, 19-31; N-terminus and C-terminus assumed) as the compound, how does the “S/N (signal to noise ratio as compared to BSA control)” value (Table 19) read?
A: 57.5

Q: What about the ELISA [3] of the same compound?
A: 4.1

Q: With “GCDVMQPYWGCGVDLSCLAGCVCHWYNSCG [VEGF_CKP9.63.3]” as the compound, how does the “S/N (signal to noise ratio as compared to BSA control)” value (Table 27) read?
A: 20.7

Q: What about the ELISA [1] of the same compound?
A: 1.7

Q: For `CC(C)C[C@@H]1NC(=O)[C@@H]2CSSC[C@H](NC(=O)CNC(=O)[C@H](Cc3c[nH]c4ccccc34)NC(=O)[C@H](Cc3ccccc3)NC(=O)[C@@H]3CCCN3C(=O)[C@H](CCC(N)=O)NC(=O)[C@H](CC(C)C)NC(=O)[C@H](C(C)C)NC(=O)[C@H](CC(=O)O)NC(=O)[C@@H](NC(=O)CN)CSSC[C@@H](C(=O)N[C@H](C(=O)N[C@H]3CSSC[C@@H](C(=O)NCC(=O)O)NC(=O)[C@H](CO)NC(=O)[C@H](CCC(N)=O)NC(=O)[C@H](Cc4ccc(O)cc4)NC(=O)[C@H](Cc4c[nH]c5ccccc45)NC(=O)[C@H](Cc4c[nH]cn4)NC3=O)C(C)C)NC(=O)CNC(=O)[C@H](C)NC1=O)C(=O)N[C@@H](CCCCN)C(=O)N[C@@H](CCC(N)=O)C(=O)N[C@@H](CC(=O)O)C(=O)N[C@@H](CO)C(=O)N[C@@H](CC(=O)O)C(=O)N2` [VEGF_CKP9.2] (H-GCDVLQPFWGCKQDSDCLAGCVCHWYQSCG-OH; disulfide 2-21, 11-17, 23-29 (inferred); N-terminus and C-terminus assumed), which “S/N (signal to noise ratio as compared to BSA control)” value (Table 24) is on record?
A: 31.1

Q: And the ELISA [2]?
A: 2.4

Q: Which results are given for “GCQLMQPFWGCKQDSDCLAGCVCHWYQSCG [VEGF_CKP9.L5.18]”?
A: S/N (signal to noise ratio as compared to BSA control) (Table 23): 20.4; ELISA (VEGF_CKP9 Loop5 affinity-matured variants, Table 23): 1.6

Q: “GCDVMQPYWGCGENLACLAGCVCHWYNSCG [VEGF_CKP9.63.54]” was tested. Which “S/N (signal to noise ratio as compared to BSA control)” value (Table 27) did it give?
A: 19.9

Q: What about the ELISA [1] of the same compound?
A: 1.4

Q: `CC[C@H](C)[C@@H]1NC(=O)[C@H](Cc2c[nH]c3ccccc23)NC(=O)[C@H](Cc2c[nH]cn2)NC(=O)[C@@H]2CCCN2C(=O)[C@H](CCCCN)NC(=O)[C@H](Cc2c[nH]c3ccccc23)NC(=O)[C@@H]2CCCN2C(=O)[C@H]([C@@H](C)O)NC(=O)[C@H](C(C)C)NC(=O)[C@@H](NC(=O)CN)CSSC[C@@H]2NC(=O)CNC(=O)[C@H](C)NC(=O)[C@H](CC(C)C)NC(=O)[C@@H]3CSSC[C@@H](C(=O)NCC(=O)O)NC(=O)[C@H](Cc4ccccc4)NC(=O)CNC(=O)[C@H](CC(N)=O)NC(=O)[C@@H]4CCCN4C(=O)CNC(=O)[C@H](CSSC[C@H](NC(=O)[C@H](CC(N)=O)NC1=O)C(=O)N[C@@H](CCCCN)C(=O)N[C@@H](CCC(N)=O)C(=O)N[C@@H](CC(=O)O)C(=O)N[C@@H](CO)C(=O)N[C@@H](CC(=O)O)C(=O)N3)NC(=O)[C@H](C(C)C)NC2=O` [VEGF_CKP13] (H-GCVTPWKPHWINCKQDSDCLAGCVCGPNGFCG-OH; disulfide 2-23, 13-25, 19-31; N-terminus and C-terminus assumed) was tested. Which “S/N (signal to noise ratio as compared to BSA control)” value (Table 19) did it give?
A: 56.3

Q: What about the ELISA [3] of the same compound?
A: 3.5

Q: How did the “S/N (signal to noise ratio as compared to BSA control)” value (Table 27) turn out when “GCDVMQPYWGCDGDYQCLAGCVCHWYNSCG [VEGF_CKP9.63.18]” was run?
A: 17.3

Q: What about the ELISA [1] of the same compound?
A: 2.3

Q: For `CC[C@H](C)[C@@H]1NC(=O)[C@H](CC(N)=O)NC(=O)[C@@H](NC(=O)CN)CSSC[C@@H](C(=O)N[C@H](C(=O)N[C@H]2CSSC[C@@H](C(=O)NCC(=O)O)NC(=O)[C@H](CO)NC(=O)[C@H](CCC(N)=O)NC(=O)[C@H](Cc3ccc(O)cc3)NC(=O)[C@H](Cc3ccc(O)cc3)NC(=O)[C@H](CCC(N)=O)NC2=O)C(C)C)NC(=O)CNC(=O)[C@H](C)NC(=O)[C@H](CC(C)C)NC(=O)[C@@H]2CSSC[C@H](NC(=O)CNC(=O)[C@H](Cc3c[nH]c4ccccc34)NC(=O)[C@H](Cc3ccccc3)NC(=O)[C@@H]3CCCN3C(=O)[C@H](CC(C)C)NC(=O)[C@H](CCSC)NC1=O)C(=O)NCC(=O)N1CCC[C@H]1C(=O)N[C@@H](CC(=O)O)C(=O)N[C@@H](CC(C)C)C(=O)N[C@@H](CCC(N)=O)C(=O)N2` [VEGF_CKP9.54.59] (H-GCNIMLPFWGCGPDLQCLAGCVCQYYQSCG-OH; disulfide 2-21, 11-17, 23-29; N-terminus and C-terminus assumed), which “S/N (signal to noise ratio as compared to BSA control)” value (Table 26) is on record?
A: 35.4

Q: And the ELISA (loop 2 variants based on 9.54 framework, Table 26)?
A: 2.3

Q: Which “S/N (signal to noise ratio as compared to BSA control)” value (Table 27) does the source give for “GCDVMQPYWGCAGDFECLAGCVCHWYNSCG [VEGF_CKP9.63.42]” here?
A: 23.1

Q: And the ELISA [1]?
A: 1.7

Q: Which results are given for “GCDVMQPYWGCDGDFDCLAGCVCHWYNSCG [VEGF_CKP9.63.39]”?
A: S/N (signal to noise ratio as compared to BSA control) (Table 27): 18.9; ELISA [1]: 1.6

Q: Which “S/N (signal to noise ratio as compared to BSA control)” value (Table 27) does the source give for “GCDVMQPYWGCGFDMDCLAGCVCHWYNSCG [VEGF_CKP9.63.65]” here?
A: 27.1

Q: And the ELISA [1]?
A: 2.0

Q: For `CC[C@H](C)[C@@H]1NC(=O)[C@H](CCC(=O)O)NC(=O)[C@H](Cc2c[nH]cn2)NC(=O)[C@@H]2CCCN2C(=O)[C@@H]2CCCN2C(=O)[C@H](Cc2c[nH]c3ccccc23)NC(=O)[C@@H]2CCCN2C(=O)[C@H]([C@@H](C)O)NC(=O)[C@H]([C@@H](C)O)NC(=O)[C@@H](NC(=O)CN)CSSC[C@@H]2NC(=O)CNC(=O)[C@H](C)NC(=O)[C@H](CC(C)C)NC(=O)[C@@H]3CSSC[C@@H](C(=O)NCC(=O)O)NC(=O)[C@H](Cc4ccccc4)NC(=O)CNC(=O)[C@H](CC(N)=O)NC(=O)[C@@H]4CCCN4C(=O)CNC(=O)[C@H](CSSC[C@H](NC(=O)[C@H](CCSC)NC1=O)C(=O)N[C@@H](CCCCN)C(=O)N[C@@H](CCC(N)=O)C(=O)N[C@@H](CC(=O)O)C(=O)N[C@@H](CO)C(=O)N[C@@H](CC(=O)O)C(=O)N3)NC(=O)[C@H](C(C)C)NC2=O` [VEGF_CKP12] (H-GCTTPWPPHEIMCKQDSDCLAGCVCGPNGFCG-OH; disulfide 2-23, 13-25, 19-31; N-terminus and C-terminus assumed), which “S/N (signal to noise ratio as compared to BSA control)” value (Table 19) is on record?
A: 55.2

Q: What about the ELISA [3] of the same compound?
A: 3.5
